Results on one molecule are retold here after publication PMC9122904, “Insights into the client protein release mechanism of the ATP-independent chaperone Spy” (Nature Communications, 2022).

Common to all, as to assay: BLI; Octet RED96; client biotinylated and loaded on streptavidin sensors; Spy or Spy variant in solution at 0.25, 0.5, 1, 1.5 and 2 μM; 40 mM HEPES, 150 mM NaCl, pH 7.5; Kd calculated as koff/kon
Holding throughout (settings): both partners purified

Experiment [1] addresses T1, Spy_(24-124) (UniProt P77754 47-147).
T1 construct: source: E. coli BL21 (DE3), purified (Ni-NTA, cation exchange, SEC); not shown: His6, N-terminal, cleaved; SUMO, N-terminal, cleaved
T1 sequence (looked up): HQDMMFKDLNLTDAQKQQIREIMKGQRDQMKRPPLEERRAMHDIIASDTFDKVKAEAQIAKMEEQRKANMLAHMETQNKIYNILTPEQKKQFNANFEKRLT
An outline of the steps: (§1)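 Client proteins were biotinylated with EZ-link NHS-biotin at a 1:1 molar ratio, loaded onto streptavidin sensors, and measured by biolayer interferometry on an Octet RED96. The loaded sensors were dipped into 40 mM HEPES, 150 mM NaCl, pH 7.5 holding the analyte protein at 0.25, 0.5, 1, 1.5 or 2 μM, then moved to buffer without it. Fitting the wavelength-shift association and dissociation curves in SigmaPlot 12.0 gave the observed association rate and koff, kon was taken from the observed rate plotted against analyte concentration, and Kd was calculated as koff/kon.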

Experiment [2] has as its target T2, Spy_(29-130) (UniProt P77754 52-153).
T2 construct: Spy chaperone, residues 29-130; source: E. coli BL21 (DE3), purified (Ni-NTA, cation exchange, SEC); not shown: His6, N-terminal, cleaved; SUMO, N-terminal, cleaved
T2 sequence (looked up): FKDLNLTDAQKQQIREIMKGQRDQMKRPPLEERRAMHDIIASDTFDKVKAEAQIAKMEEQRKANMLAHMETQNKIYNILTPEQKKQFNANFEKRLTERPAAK
Summed up:
as §1

The target in experiment [3] is T3, Spy_(21-130) (UniProt P77754 44-153).
T3 construct: Spy chaperone, residues 21-130; source: E. coli BL21 (DE3), purified (Ni-NTA, cation exchange, SEC); not shown: His6, N-terminal, cleaved; SUMO, N-terminal, cleaved
T3 sequence (looked up): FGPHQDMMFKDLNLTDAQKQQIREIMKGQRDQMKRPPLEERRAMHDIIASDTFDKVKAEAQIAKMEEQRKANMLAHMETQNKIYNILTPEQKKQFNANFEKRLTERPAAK
Summed up: as §1

For experiment [4], the target named is T4, Spy_(1-124) (UniProt P77754 24-147).
T4 construct: source: E. coli BL21 (DE3), purified (Ni-NTA, cation exchange, SEC); not shown: His6, N-terminal, cleaved; SUMO, N-terminal, cleaved
T4 sequence (looked up): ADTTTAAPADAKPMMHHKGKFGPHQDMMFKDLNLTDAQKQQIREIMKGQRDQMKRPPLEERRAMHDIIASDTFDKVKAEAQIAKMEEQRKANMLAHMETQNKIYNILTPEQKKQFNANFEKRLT
Summed up:
as §1

The target in experiment [5] is T5, Spy_(29-124) (UniProt P77754 52-147).
T5 construct: also called termini-free Spy; source: E. coli BL21 (DE3), purified (Ni-NTA, cation exchange, SEC); not shown: His6, N-terminal, cleaved; SUMO, N-terminal, cleaved
T5 sequence (looked up): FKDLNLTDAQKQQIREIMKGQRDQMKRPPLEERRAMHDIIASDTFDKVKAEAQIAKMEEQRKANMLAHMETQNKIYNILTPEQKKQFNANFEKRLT
Summed up: as §1

The target of experiment [6] is T6, Spy_(27-124) (UniProt P77754 50-147).
T6 construct: source: E. coli BL21 (DE3), purified (Ni-NTA, cation exchange, SEC); not shown: His6, N-terminal, cleaved; SUMO, N-terminal, cleaved
T6 sequence (looked up): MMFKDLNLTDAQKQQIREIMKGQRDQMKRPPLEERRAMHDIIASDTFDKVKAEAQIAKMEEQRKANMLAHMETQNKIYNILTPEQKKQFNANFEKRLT
Summed up: as §1

Experiment [7] concerns the target T7, Spy wild type (Spy_(1-138)) (UniProt P77754 24-161).
T7 construct: Spy, ATP-independent periplasmic chaperone; also called WT; wt; source: E. coli BL21 (DE3), purified (Ni-NTA, cation exchange, SEC); not shown: His6, N-terminal, cleaved; SUMO, N-terminal, cleaved
T7 sequence (looked up): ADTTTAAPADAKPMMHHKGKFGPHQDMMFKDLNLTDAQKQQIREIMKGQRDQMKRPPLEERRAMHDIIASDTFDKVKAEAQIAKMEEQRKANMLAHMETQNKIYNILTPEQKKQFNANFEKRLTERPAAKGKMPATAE
An outline of the steps: as §1

The target in experiment [8] is T8, Spy_(27-127) (UniProt P77754 50-150).
T8 construct: Spy chaperone, residues 27-127; source: E. coli BL21 (DE3), purified (Ni-NTA, cation exchange, SEC); not shown: His6, N-terminal, cleaved; SUMO, N-terminal, cleaved
T8 sequence (looked up): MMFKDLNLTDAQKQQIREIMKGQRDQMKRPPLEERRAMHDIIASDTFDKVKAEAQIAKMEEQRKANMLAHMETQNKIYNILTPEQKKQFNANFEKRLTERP
An outline of the steps: as §1

B1: Im7 H40W L53A I54A (natural protein)
chain: MELKNSISDYTEAEFVQLLKEIEKENVAATDDVLDVLLEWFVKITEHPDGTDAAYYPSDNRDDSPEGIVKEIKEWRAANGKPGFKQG
modifications: biotin (EZ-link NHS-biotin, 1:1 molar ratio of biotin to protein)
notes: Im7 (colicin E7 immunity protein) with H40W L53A I54A; Spy was made with an N-terminal His6-SUMO tag that was cleaved; also called Im7AAW; partially folded client; source: purified by a similar procedure to Spy
In general, kon refers to a measure of how fast the partners come together. In the case of B1, the on-rate (kon) in experiment [1] was 258000 M⁻¹ s⁻¹; in experiment [2], 283000 M⁻¹ s⁻¹; in experiment [3], 187000 M⁻¹ s⁻¹; in experiment [4], 203000 M⁻¹ s⁻¹; in experiment [5], 273000 M⁻¹ s⁻¹; in experiment [6], 314000 M⁻¹ s⁻¹. Besides, the values for the kon in experiment [7] and in experiment [8] were 276000 M⁻¹ s⁻¹ and 312000 M⁻¹ s⁻¹, respectively.
